{"source": "paper PMC11806408", "about": "“Prodomain processing controls BMP‐10 bioactivity and targeting to fibrillin‐1 in latent conformation” (The FASEB Journal, 2025)", "binders": {"B1": {"name": "processed BMP‐10 CPLX (tag‐free, HEK293) (complex, human)", "chain 1": "SPIMNLEQSPLEEDMSLFGDVFSEQDGVDFNTLLQSMKDEFLKTLNLSDIPTQDSAKVDPPEYMLELYNKFATDRTSMPSANIIRSFKNEDLFSQPVSFNGLRKYPLLFNVSIPHHEEVIMAELRLYTLVQRDRMIYDGVDRKITIFEVLESKGDNEGERNMLVLVSGEIYGTNSEWETFDVTDAIRRWQKSGSSTHQLEVHIESKHDEAEDASSGRLEIDTSAQNKHNPLLIVFSDDQSSDKERKEELNEMISHEQLPELDNLGLDSFSSGPGEEALLQMRSNIIYDSTARIRR", "chain 2": "NAKGNYCKRTPLYIDFKEIGWDSWIIAPPGYEAYECRGVCNYPLAEHLTPTKHAIIQALVHLKNSQKASKACCVPTKLEPISILYLDKGVVTYKFKYEGMAVSECGCR", "modifications": "N‐glycosylation", "notes": "Bone morphogenetic protein 10, human, prodomain (PD) up to the endogenous PPC cleavage site RIRR; calculated molecular weight without glycans 34.6 kDa; secreted through the BM40 signal peptide of the vector; Bone morphogenetic protein 10, human, growth factor (GF) released by PPC cleavage after RIRR; calculated molecular weight of the monomer 12.2 kDa; The SPR methods say only 'processed BMP‐10 …"}, "B2": {"name": "BMPRII ectodomain, human IgG1‐Fc fusion (R&D Systems #811‐BR‐100/CF) (Fc fusion, UniProt Q13873 27-150, looked up)", "chain": "SQNQERLCAFKDPYQQDLGIGESRISHENGTILCSKGSTCYGLWEKSKGDINLVKQGCWSHIGDPQECHYEECVVTTTPPSIQNGTYRFCCCSTDLCNVNFTENFPPPDTTPLSPPHSFNRDET", "notes": "Bone morphogenetic protein receptor type II (BMPRII), ectodomain; 'human' in the sentence may qualify the IgG1 Fc only; also called BMP type II receptor; source: bought: R&D Systems (#811‐BR‐100/CF)"}}, "key": {"[1]": {"biological_target": "T1, ENG ectodomain (R&D Systems #1097‐EN‐025/CF) (human, UniProt P17813 26-586)", "T1 construct": "Endoglin (ENG), ectodomain; The methods read 'the human IgG1‐Fc‐fusion ectodomains of BMPRII, ALK‐1 as well as ENG'; also called endoglin; co‐receptor ENG; source: bought: R&D Systems (#1097‐EN‐025/CF); not shown: Fc (human IgG1)", "T1 sequence (looked up)": "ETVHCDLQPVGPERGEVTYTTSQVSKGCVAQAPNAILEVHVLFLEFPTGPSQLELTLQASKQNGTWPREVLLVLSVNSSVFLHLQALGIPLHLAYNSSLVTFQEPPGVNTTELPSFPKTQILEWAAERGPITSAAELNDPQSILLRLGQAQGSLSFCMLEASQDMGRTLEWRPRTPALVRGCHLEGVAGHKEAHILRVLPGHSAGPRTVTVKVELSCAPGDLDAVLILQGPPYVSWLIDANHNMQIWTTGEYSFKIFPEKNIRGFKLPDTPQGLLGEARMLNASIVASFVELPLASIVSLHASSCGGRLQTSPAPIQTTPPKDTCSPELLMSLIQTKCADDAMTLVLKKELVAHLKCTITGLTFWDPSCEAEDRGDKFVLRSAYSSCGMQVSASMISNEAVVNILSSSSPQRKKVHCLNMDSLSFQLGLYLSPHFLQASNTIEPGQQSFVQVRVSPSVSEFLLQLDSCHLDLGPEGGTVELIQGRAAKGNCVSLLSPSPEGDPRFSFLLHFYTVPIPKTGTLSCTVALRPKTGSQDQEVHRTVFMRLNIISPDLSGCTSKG", "assay": "SPR; receptor ectodomains immobilised at 500 or 800 RUs on a CM5 chip by amine coupling; analytes 0 to 80 nM, 1:2 serial dilutions, 1× HBS‐EP; 1:1 model with mass transfer; apparent KD = kd/ka; three independent experiments", "conditions": "both partners purified"}, "BMP‐10 PD (E. coli)": {"biological_target": "T2, BMP‐10 PD (E. coli) (human, UniProt O95393 22-316)", "T2 construct": "also called BMP‐10 prodomain; E. coli‐derived BMP‐10 PD; source: E. coli BL21‐CodonPlus, purified (Ni‐NTA)", "T2 sequence (looked up)": "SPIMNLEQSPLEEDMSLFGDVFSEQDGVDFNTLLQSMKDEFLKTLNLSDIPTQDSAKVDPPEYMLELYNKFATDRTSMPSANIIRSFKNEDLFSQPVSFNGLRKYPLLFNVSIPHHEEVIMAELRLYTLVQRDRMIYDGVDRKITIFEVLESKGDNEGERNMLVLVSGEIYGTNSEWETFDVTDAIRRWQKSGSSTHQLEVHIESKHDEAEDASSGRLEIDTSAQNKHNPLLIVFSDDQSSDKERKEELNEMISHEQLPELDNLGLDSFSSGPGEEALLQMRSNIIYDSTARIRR", "assay": "SPR; PDs of BMP‐9, BMP‐10 and N‐10/C‐9 fusion PD immobilised at 450 RUs on a CM5 chip by amine coupling; BMP‐10 GF 0 to 80 nM, 1:2 serial dilutions, 1× HBS‐EP; 1:1 model with mass transfer; apparent KD = kd/ka", "conditions": "both partners purified"}, "BMP‐9 PD (E. coli)": {"biological_target": "T3, BMP‐9 PD (E. coli) (human, UniProt Q9UK05 23-319)", "T3 construct": "also called BMP‐9 prodomain; source: E. coli BL21‐CodonPlus, purified (Ni‐NTA)", "T3 sequence (looked up)": "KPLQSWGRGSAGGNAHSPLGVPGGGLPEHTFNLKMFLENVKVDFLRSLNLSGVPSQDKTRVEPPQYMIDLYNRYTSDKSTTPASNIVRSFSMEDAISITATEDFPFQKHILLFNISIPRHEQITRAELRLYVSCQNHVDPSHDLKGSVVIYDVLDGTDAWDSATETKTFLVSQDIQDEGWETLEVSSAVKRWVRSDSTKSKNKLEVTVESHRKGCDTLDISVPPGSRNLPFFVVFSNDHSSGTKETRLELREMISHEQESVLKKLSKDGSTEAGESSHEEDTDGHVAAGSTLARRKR", "assay": "SPR; PDs of BMP‐9, BMP‐10 and N‐10/C‐9 fusion PD immobilised at 450 RUs on a CM5 chip by amine coupling; BMP‐10 GF 0 to 80 nM, 1:2 serial dilutions, 1× HBS‐EP; 1:1 model with mass transfer; apparent KD = kd/ka", "conditions": "both partners purified"}, "[2]": {"biological_target": "B2", "assay": "SPR; receptor ectodomains immobilised at 500 or 800 RUs on a CM5 chip by amine coupling; analytes 0 to 80 nM, 1:2 serial dilutions, 1× HBS‐EP; 1:1 model with mass transfer; apparent KD = kd/ka; three independent experiments", "conditions": "both partners purified"}, "[3]": {"biological_target": "T1, ENG ectodomain (R&D Systems …)", "assay": "SPR; receptor ectodomains immobilised at 500 or 800 RUs on a CM5 chip by amine coupling; analytes 0 to 80 nM, 1:2 serial dilutions, 1× HBS‐EP; 1:1 model with mass transfer; apparent KD = kd/ka; three independent experiments", "conditions": "both partners purified", "remark": "listed apart in the source"}, "[4]": {"biological_target": "the molecule itself", "assay": "AUC; sedimentation velocity of elution fractions after SEC/MALS (S200 Increase, 1× PBS), 54 000 rpm, 280 nm, c(s) fit; PD dimer"}, "[5]": {"biological_target": "B1", "assay": "SPR; receptor ectodomains immobilised at 500 or 800 RUs on a CM5 chip by amine coupling; analytes 0 to 80 nM, 1:2 serial dilutions, 1× HBS‐EP; 1:1 model with mass transfer; apparent KD = kd/ka; three independent experiments", "conditions": "both partners purified"}}, "data": [{"binder": "B1", "values": [{"measurement": "binding result", "setting": "[1]", "result": "binds"}]}, {"binder": "BMP‐10 GF (R&D Systems #2926‐BP‐025/CF) (ligand, human, UniProt O95393 317-424, looked up, Bone morphogenetic protein 10, human, growth factor (GF) moiety that follows the PPC cleavage site RIRR; calculated molecular weight of the monomer 12.2 kDa, dimer 24.4 kDa; Disulfide-linked GF dimer; also called BMP‐10 growth factor; BMP‐10 GF dimer; source: bought: R&D Systems (#2926‐BP‐025/CF); called commercially available HEK293‐derived) NAKGNYCKRTPLYIDFKEIGWDSWIIAPPGYEAYECRGVCNYPLAEHLTPTKHAIIQALVHLKNSQKASKACCVPTKLEPISILYLDKGVVTYKFKYEGMAVSECGCR", "values": [{"measurement": "Kd", "setting": "BMP‐10 PD (E. coli)", "result": "5.2 ± 0.7", "unit": "nM"}, {"measurement": "koff", "setting": "BMP‐10 PD (E. coli)", "result": 0.0024, "unit": "s⁻¹"}, {"measurement": "kon", "setting": "BMP‐10 PD (E. coli)", "result": 500000, "unit": "M⁻¹ s⁻¹"}, {"measurement": "Kd", "setting": "BMP‐9 PD (E. coli)", "result": "10.4 ± 2.5", "unit": "nM"}, {"measurement": "koff", "setting": "BMP‐9 PD (E. coli)", "result": 0.0024, "unit": "s⁻¹"}, {"measurement": "kon", "setting": "BMP‐9 PD (E. coli)", "result": 230000, "unit": "M⁻¹ s⁻¹"}, {"measurement": "Kd", "setting": "[2]", "result": "2.6 ± 0.6", "unit": "nM"}, {"measurement": "koff", "setting": "[2]", "result": 0.0017, "unit": "s⁻¹"}, {"measurement": "kon", "setting": "[2]", "result": 690000, "unit": "M⁻¹ s⁻¹"}, {"measurement": "Kd", "setting": "[3]", "result": "16.3 ± 2.9", "unit": "nM"}, {"measurement": "koff", "setting": "[3]", "result": 0.008, "unit": "s⁻¹"}, {"measurement": "kon", "setting": "[3]", "result": 490000, "unit": "M⁻¹ s⁻¹"}]}, {"binder": "BMP‐10 PD (HEK293, from the processed BMP‐10 CPLX) (domain or fragment, human, N‐glycosylation, Bone morphogenetic protein 10, human, prodomain (PD) up to the endogenous PPC cleavage site RIRR; band at 45 kDa, calculated molecular weight without glycans 34.6 kDa; The methods of SEC/MALS and AUC say only 'two fractions of BMP‐10'; also called separated BMP‐10 PD) SPIMNLEQSPLEEDMSLFGDVFSEQDGVDFNTLLQSMKDEFLKTLNLSDIPTQDSAKVDPPEYMLELYNKFATDRTSMPSANIIRSFKNEDLFSQPVSFNGLRKYPLLFNVSIPHHEEVIMAELRLYTLVQRDRMIYDGVDRKITIFEVLESKGDNEGERNMLVLVSGEIYGTNSEWETFDVTDAIRRWQKSGSSTHQLEVHIESKHDEAEDASSGRLEIDTSAQNKHNPLLIVFSDDQSSDKERKEELNEMISHEQLPELDNLGLDSFSSGPGEEALLQMRSNIIYDSTARIRR", "values": [{"measurement": "stoichiometry N", "setting": "[4]", "result": 2}]}, {"binder": "B2", "values": [{"measurement": "Kd", "setting": "[5]", "result": "0.8 ± 0.1", "unit": "nM"}, {"measurement": "koff", "setting": "[5]", "result": 0.00079, "unit": "s⁻¹"}, {"measurement": "kon", "setting": "[5]", "result": 940000, "unit": "M⁻¹ s⁻¹"}]}]}
